Measured values as given in patent publication CN115894704A (UNIV SICHUAN, dated 2023).

T1: EpCAM-camFc(人EpCAM与羊驼Fc重组蛋白) (human, UniProt P16422 24-265)
T1 construct: Recombinant fusion of human EpCAM and alpaca Fc; not shown: alpaca Fc
T1 sequence (looked up): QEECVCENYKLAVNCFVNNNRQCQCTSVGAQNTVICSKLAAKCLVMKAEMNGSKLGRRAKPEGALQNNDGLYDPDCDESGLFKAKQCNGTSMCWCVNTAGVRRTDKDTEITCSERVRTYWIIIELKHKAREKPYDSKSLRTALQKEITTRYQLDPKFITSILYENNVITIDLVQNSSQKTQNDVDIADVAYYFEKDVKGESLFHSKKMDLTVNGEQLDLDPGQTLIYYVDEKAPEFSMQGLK

B1: Anti-EpCAM-VHH SEQ ID NO 1 (phage-displayed) (VHH)
VHH: DVQLVESGGGSVQSGGSLRLSCAASGYTYRRYYMGWFRQAPGEQREGVAVINNDGRTNYADSVKGRFRISRDNAENTLHLEMNSLKPEDTAMYYCAATGNILPPMTAVPPLGRQWYPYWGRGTLVTVSS
notes: fusion to the phage coat protein is not described
B2: Anti-EpCAM-VHH SEQ ID NO 2 (phage-displayed) (VHH)
VHH: HVQLVESGGGSVQSGGSLRLSCAASGYAVKNCMGWFRQAPGKEREGVAVINRNGITTYADSVKGRFTISQDKDKNTLDLQMNSLKPEDTAMYYCAATPTLLTIPARFLCDVRNPSGFTDWGQGTLVTVSS
notes: as for B1
B3: Anti-EpCAM-VHH SEQ ID NO 3 (phage-displayed) (VHH)
VHH: QVQLVESGGGSVQAGGSLRLSCVVSAYSAYTYKTMCMGWFRQAPGKEREGVAAIYRGGLNTYYADSVKGRFIISRDNAESTMYLQMNSLKPEDTAMYYCAADWLRGDDCNIGANFDYWGQGTQVTVSS
notes: as for B1
B4: Anti-EpCAM-VHH SEQ ID NO 4 (phage-displayed) (VHH)
VHH: QVQLVESGGGSVQAGGSLRLSCVATGFTISRKCMGWFREAPGKKREVIATINTGSSSPYYADGVKGRFTISQDNAKNTVYLQMNSLKPEDTAMYYCAATKGVVVGTGYCGGPYVERPNSAYWGQGTQVTVSS
notes: as for B1
B5: Anti-EpCAM-VHH SEQ ID NO 5 (phage-displayed) (VHH)
VHH: DVQLVESGGGSVQAGRSLRLSCELSDYTWSTVCMGWFRQAPGKEREGVAVIYTRSGGTTYADSAKGRFTISRDNAKDTLYLQMDSLKPEDTAMYYCAAGPLYDGRCTYRSPAFHYWGQGTQVTVSS
notes: as for B1
B6: Anti-EpCAM-VHH SEQ ID NO 6 (phage-displayed) (VHH)
VHH: DVQLVESGGGSAQAGGSLRLSCAASGPTSSLRTMGWFRQASGKERERVAVIWDGRTTDYDDSVQDRFTISQDNAKSTVYLQMNTLKPEDTAMYYCAASPRIVPFASTYFQHWGQGTQVTVSS
notes: as for B1
B7: Anti-EpCAM-VHH SEQ ID NO 7 (phage-displayed) (VHH)
VHH: HVQLVESGGGSVQAGGSLKLSCAASGSIFSGSIFSRCGMRWYRQAPGKERELVSSTSKDGFTSYTDSVKGRFTISQDNANNTLYLQMSSLKTEDTAVYSCAAICAVGGYSLSTYTYWGQGTQVTVSS
notes: as for B1
B8: Anti-EpCAM-VHH SEQ ID NO 8 (phage-displayed) (VHH)
VHH: EVQLVESGGDSVQAGGSLRLSCAASGYSPGSYCMGWFRQAPGKERERVAIIESRGTVTYVDSVKGRFTISKDNAKNTLYLQMNSLKPEDTAMYYCAASRPWSGVRCLHDKYDYWGQGTQVTVSS
notes: as for B1
B9: Anti-EpCAM-VHH SEQ ID NO 9 (phage-displayed) (VHH)
VHH: HVQLVESGGGSVQSGGSLRLSCAVSGYAYSSLAWFRQAPGKEREGVAALLTAIGGPTRTTYADSVKGRLAISQDHAKNTLYLQMSSLKPEDTAMYYCAAGRPAGTPRWLLLAPRDYNYWGQGTQVTVSS
notes: as for B1

Biological target: T1, EpCAM-camFc(人EpCAM与羊驼Fc重组蛋白)
Assay: phage ELISA, EpCAM-camFc coated, anti-M13 HRP

| Binder | binding result |
| --- | --- |
| B1 | binds |
| B2 | binds |
| B3 | binds |
| B4 | binds |
| B5 | binds |
| B6 | binds |
| B7 | binds |
| B8 | binds |
| B9 | binds |
